Here are results for one variant from PMC2588538, “Structure of Reovirus σ1 in Complex with Its Receptor Junctional Adhesion Molecule-A” (PLoS Pathogens, 2008).

The labels stand for the following.
B1: σ1 of reovirus strain rsT3D-σ1T249I (parent), on purified virions [mammalian orthoreovirus, strain type 3 Dearing (T3D)] / GST-JAM-A ectodomain fusion protein [not stated] (parent complex)
chain 1: MDPRLREEVVRLIIALTSDNGASLSKGLESRVSALEKTSQIHSDTILRITQGLDDANKRIIALEQSRDDLVASVSDAQLAISRLESSIGALQTVVNGLDSSVTQLGARVGQLETGLAELRVDHDNLVARVDTAERNIGSLTTELSTLTLRVTSIQADFESRISTLERTAVTSAGAPLSIRNNRMTMGLNDGLTLSGNNLAIRLPGNTGLNIQNGGLQFRFNTDQFQIVNNNLTLKTTVFDSINSRIGAIEQSYVASAVTPLRLNSSTKVLDMLIDSSTLEINSSGQLTVRSTSPNLRYPIADVSGGIGMSPNYRFRQSMWIGIVSYSGSGLNWRVQVNSDIFIVDDYIHICLPAFDGFSIADGGDLSLNFVTGLLPPLLTGDTEPAFHNDVVTYGAQTVAIGLSSGGAPQYMSKNLWVEQWQDGVLRLRVEGGGSITHSNSKWPAMTVSYPRSFT
chain 2: SVTVHSSEPEVRIPENNPVKLSCAYSGFSSPRVEWKFDQGDTTRLVCYNNKITASYEDRVTFLPTGITFKSVTREDTGTYTCMVSEEGGNSYGEVKVKLIVLVPPSKPTVNIPSSATIGNRAVLTCSEQDGSPPSEYTWFKDGIVMPTNPKSTRAFSNSSYVLNPTTGELVFDPLSASDTGEYSCEARNGYGTPMTSNAVRMEAVERNVGV

This test covers variants of B1. Kind of test: SPR; 8×1012 (orange) particles/ml virus; GST-JAM-A captured on biosensor surface; parent: 98; read off a plot. (In general: SPR reads the build-up and loss of mass on a sensor chip optically.)
For the variant chain 1 N369A, the response was roughly 25 RU.
